Assay results as given in article PMC10415362, “Mechanism of U6 snRNA oligouridylation by human TUT1”.

Target: T1, hTUT1_ZF-RRM (Homo sapiens, UniProt Q9H6E5 1-140)
T1 sequence: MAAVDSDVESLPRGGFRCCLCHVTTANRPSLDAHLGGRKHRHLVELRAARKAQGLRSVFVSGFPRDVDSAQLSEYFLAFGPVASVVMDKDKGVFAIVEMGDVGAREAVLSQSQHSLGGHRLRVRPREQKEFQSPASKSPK
Assay: EMSA; 10 mM MgCl2; EMSA: 50 mM Tris-Cl pH 8.5, 100 mM NaCl, 10 mM MgCl2, 10 mM beta-mercaptoethanol, 10% glycerol, room temperature 15 min; RNA 50 nM (U6) or 100 nM (U6_mini); protein 0-1000 nM
Conditions: protein: recombinant; tags: His tag implied (pET22b, Ni-NTA); hairpin with 5' single strand

B1: U6_mini (structured_RNA)
RNA: GGAUACUAAAAUUGGAACGAUACAGAGUUCGCUCGUGAAGCGUUCCAUAUUUU
B1 gave a Kd of 204 ± 41 nM.
